# According to article PMC6092110, “Binding of Dickkopf-3 to CXCR7 Enhances Vascular Progenitor Cell Migration and Degradable Graft Regeneration” (Circulation Research, 2018):
# B1: Dkk3-AP (Dkk3 conjugated with alkaline phosphatase) (ligand)
# chain: not shown
# Target: T1, CXCR7 (HA tagged) overexpressed in HEK 293T cells (UniProt P56485 1-362)
# T1 construct: CXCR7 (C-X-C chemokine receptor type 7), HA tagged, overexpressed from an expression plasmid in HEK 293T cells; source: HEK 293T, transfected, in lysate
# Experiment: ELISA; saturation binding: lysates of HEK 293T cells overexpressing the receptor loaded onto high-affinity-binding ELISA plates coated with anti-HA antibody; serial dilutions of AP-conjugated ligand (or AP alone); AP activity read; Scatchard analysis; n=3
# Conditions: one partner purified
# T1 sequence (P56485 whole entry): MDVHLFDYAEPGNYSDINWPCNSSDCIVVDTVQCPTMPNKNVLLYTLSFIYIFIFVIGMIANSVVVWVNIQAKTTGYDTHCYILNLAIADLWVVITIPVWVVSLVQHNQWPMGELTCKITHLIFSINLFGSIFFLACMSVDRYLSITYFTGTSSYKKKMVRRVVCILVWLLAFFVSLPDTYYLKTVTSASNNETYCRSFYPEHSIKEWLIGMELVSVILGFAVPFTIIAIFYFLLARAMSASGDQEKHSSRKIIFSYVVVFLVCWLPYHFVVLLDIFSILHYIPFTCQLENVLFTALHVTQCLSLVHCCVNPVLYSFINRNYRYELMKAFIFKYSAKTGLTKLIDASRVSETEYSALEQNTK
binder,measurement,value
B1,Kd,14.1 nM
